Laboratory results: patent US9212226B2, “Amino acid sequences directed against CXCR4 and other GPCRs and compounds comprising the same” (Ablynx N.V., priority 2008, dated 2015)
“Also recorded” adds a separate entry of the source. Marks after values point to notes of the source that are not given here.

T1: CXCR1 (Homo sapiens, UniProt P25024)
T1 sequence (P25024 1-350): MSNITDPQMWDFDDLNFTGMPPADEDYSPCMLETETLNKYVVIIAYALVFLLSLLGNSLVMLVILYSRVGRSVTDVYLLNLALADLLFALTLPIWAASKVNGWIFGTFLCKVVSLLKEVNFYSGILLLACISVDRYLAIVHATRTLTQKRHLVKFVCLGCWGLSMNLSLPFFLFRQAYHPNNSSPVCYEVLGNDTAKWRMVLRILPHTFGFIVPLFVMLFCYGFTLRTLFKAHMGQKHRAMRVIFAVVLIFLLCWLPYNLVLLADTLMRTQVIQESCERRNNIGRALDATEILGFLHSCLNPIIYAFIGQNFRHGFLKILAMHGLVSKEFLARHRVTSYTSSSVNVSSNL


Columns and labels:
histamine H4 receptors = histamine H4 receptors (Homo sapiens, UniProt Q9H3N8); assay: CRE/β-galactosidase reporter gene selectivity screen, histamine H4 receptor; format: cell-based; settings: up to 2.5, forskolin 3 μM, agonist at 50-80% Emax
Sequence of histamine H4 receptors (Q9H3N8 whole entry): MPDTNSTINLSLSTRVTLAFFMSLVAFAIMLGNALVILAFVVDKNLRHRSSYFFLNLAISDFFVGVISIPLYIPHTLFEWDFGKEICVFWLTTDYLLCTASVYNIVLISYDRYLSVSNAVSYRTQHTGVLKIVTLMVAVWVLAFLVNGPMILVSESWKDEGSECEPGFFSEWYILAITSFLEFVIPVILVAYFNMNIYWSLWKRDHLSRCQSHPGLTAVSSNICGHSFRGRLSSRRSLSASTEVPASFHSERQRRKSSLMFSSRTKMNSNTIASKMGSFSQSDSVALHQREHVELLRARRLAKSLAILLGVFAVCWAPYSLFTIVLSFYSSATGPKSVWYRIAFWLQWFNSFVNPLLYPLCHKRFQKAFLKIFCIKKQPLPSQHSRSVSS

CXCR4 (N119A) = CXCR4 (N119A) (Homo sapiens, UniProt P61073, N119A); assay: [125I]-CXCL12 competition binding on the constitutively active CXCR4 mutant N119A; settings: for binding to / displacement of [125I]-CXCL12 from CXCR4 (N119A): highest test concentration 2 μM, n=3
Sequence of CXCR4 (N119A) (P61073 whole entry N119A): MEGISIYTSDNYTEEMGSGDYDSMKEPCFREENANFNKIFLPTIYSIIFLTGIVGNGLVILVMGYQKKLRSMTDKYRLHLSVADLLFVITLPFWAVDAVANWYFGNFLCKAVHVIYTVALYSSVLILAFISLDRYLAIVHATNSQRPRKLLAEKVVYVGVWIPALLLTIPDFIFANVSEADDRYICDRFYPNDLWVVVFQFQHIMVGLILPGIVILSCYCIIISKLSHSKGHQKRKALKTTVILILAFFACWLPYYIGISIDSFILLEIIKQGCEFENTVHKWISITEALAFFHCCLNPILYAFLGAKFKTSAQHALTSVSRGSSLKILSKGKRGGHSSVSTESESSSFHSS
Method: HEK293T cells were maintained at 37° C. in a humidified 5% CO2, 95% air atmosphere in Dulbecco's modified Eagle's medium (DMEM) containing 2 mM L-glutamine, 50 IU/ml penicillin, 50 μg/ml streptomycin, and 10% (v/v) fetal calf serum. Jurkat cells were cultured in a humidified 5% CO2, 95% air atmosphere in a 1:1 mixture of Dulbecco's modified Eagle's medium (DMEM) and Ham's F12 medium containing 2 mM L-glutamine, 50 IU/ml penicillin, 50 μg/ml streptomycin, and 10% (v/v) fetal calf serum. […] [^125 I]-Labelling— Radiolabeling of Nanobodies with ^125I was performed using the Iodo-gen method (Pierce, Rockford, Ill.) according to the manufacturer's protocol. ^125I-labeled Nanobodies was separated from free iodine (>99%) using a Sephadex G-25 gel filtration column (Amersham Biosciences, Piscataway, N.J.). […] Competition Binding Assays— Membranes from HEK293T cells transiently expressing CXCR3 or CXCR4 were prepared 48 h after transfection as follows. Cells were washed and scraped from the cell culture dishes with ice-cold PBS containing 1 mm EDTA. The scraped cells were pelleted at 1500×g for 10 min at 4° C. The pellet was washed and then resuspended in ice-cold membrane buffer (15 mM Tris, pH 7.5, 1 mM EGTA, 0.3 mM EDTA, and 2 mM MgCl2). The cell suspension was homogenized by 10 strokes at 1200 rpm using a Teflon-glass homogenizer and rotor and further subjected to three freeze-thaw cycles using liquid nitrogen. Membranes were separated by centrifugation at 40,000 g for 25 min at 4° C. The membrane pellet was washed and resuspended in ice-cold Tris-sucrose buffer (20 mM Tris, pH 7.4, and 250 mM sucrose) and frozen in liquid nitrogen. The total protein was determined using a Bradford assay (Bio-Rad). Periplasmas (1:10) or ligands were pre-incubated with membranes in binding buffer (50 mM HEPES (pH 7.4), 1 mM CaCl2, 5 mM MgCl2, 100 mM NaCl, 0.5% bovine serum albumin) supplemented with 0.5% BSA for 1 h at 22° C. before the addition of [^125I]-CXCL12 (40 pM) or [^125I]-238D2 (3 nM) or [^125I]-238D4 (3 nM) for additional 2 h at 22° C. […] Membranes were then harvested over polyethylenimine (0.5%)-treated Whatman GF/C filter plates and washed three times with ice cold binding buffer containing 500 mM NaCl. Plates were counted by liquid scintillation. Inositol Phosphate Accumulation Assay— 24 hours post transfection with pcDNA3.1-CXCR4 and pcDNA1-HA-mG {alpha} qi5 (see Verzijl et al, 2008 supra), 250.000 cells were seeded into 24-wells plates and labelled overnight using inositol-free minimal essential medium supplemented with 1 μCi myo-[2-^3H]-inositol. The next day, the cells were washed once to remove not incorporated myo-[2-^3H]-inositol. […] The accumulated inositol phosphates were isolated by anion exchange chromatography and counted by liquid scintillation. […]

CXCR4 [1] = molecular target: T2, CXCR4 (Homo sapiens, UniProt P61073); assay: Inositol phosphate accumulation assay in HEK293T cells expressing CXCR4 and Gαqi5; format: cell-based; settings: for inhibition of the CXCL12-induced accumulation of inositol phosphates: CXCL12 30 nM; for agonist activity, inositol phosphate accumulation: up to a concentration of 100 nM
T2 sequence (P61073 whole entry): as the sequence (P61073 whole entry N119A) above, with A119N counted along it
Method: (§1) HEK293T cells were maintained at 37° C. in a humidified 5% CO2, 95% air atmosphere in Dulbecco's modified Eagle's medium (DMEM) containing 2 mM L-glutamine, 50 IU/ml penicillin, 50 μg/ml streptomycin, and 10% (v/v) fetal calf serum. Jurkat cells were cultured in a humidified 5% CO2, 95% air atmosphere in a 1:1 mixture of Dulbecco's modified Eagle's medium (DMEM) and Ham's F12 medium containing 2 mM L-glutamine, 50 IU/ml penicillin, 50 μg/ml streptomycin, and 10% (v/v) fetal calf serum. […] [^125 I]-Labelling— Radiolabeling of Nanobodies with ^125I was performed using the Iodo-gen method (Pierce, Rockford, Ill.) according to the manufacturer's protocol. ^125I-labeled Nanobodies was separated from free iodine (>99%) using a Sephadex G-25 gel filtration column (Amersham Biosciences, Piscataway, N.J.). […] Competition Binding Assays— Membranes from HEK293T cells transiently expressing CXCR3 or CXCR4 were prepared 48 h after transfection as follows. Cells were washed and scraped from the cell culture dishes with ice-cold PBS containing 1 mm EDTA. The scraped cells were pelleted at 1500×g for 10 min at 4° C. The pellet was washed and then resuspended in ice-cold membrane buffer (15 mM Tris, pH 7.5, 1 mM EGTA, 0.3 mM EDTA, and 2 mM MgCl2). The cell suspension was homogenized by 10 strokes at 1200 rpm using a Teflon-glass homogenizer and rotor and further subjected to three freeze-thaw cycles using liquid nitrogen. Membranes were separated by centrifugation at 40,000 g for 25 min at 4° C. The membrane pellet was washed and resuspended in ice-cold Tris-sucrose buffer (20 mM Tris, pH 7.4, and 250 mM sucrose) and frozen in liquid nitrogen. The total protein was determined using a Bradford assay (Bio-Rad). Periplasmas (1:10) or ligands were pre-incubated with membranes in binding buffer (50 mM HEPES (pH 7.4), 1 mM CaCl2, 5 mM MgCl2, 100 mM NaCl, 0.5% bovine serum albumin) supplemented with 0.5% BSA for 1 h at 22° C. before the addition of [^125I]-CXCL12 (40 pM) or [^125I]-238D2 (3 nM) or [^125I]-238D4 (3 nM) for additional 2 h at 22° C. […] Membranes were then harvested over polyethylenimine (0.5%)-treated Whatman GF/C filter plates and washed three times with ice cold binding buffer containing 500 mM NaCl. Plates were counted by liquid scintillation. Inositol Phosphate Accumulation Assay— 24 hours post transfection with pcDNA3.1-CXCR4 and pcDNA1-HA-mG {alpha} qi5 (see Verzijl et al, 2008 supra), 250.000 cells were seeded into 24-wells plates and labelled overnight using inositol-free minimal essential medium supplemented with 1 μCi myo-[2-^3H]-inositol. The next day, the cells were washed once to remove not incorporated myo-[2-^3H]-inositol. […] In agonist experiments, the cells were directly stimulated with test compounds and LiCl (10 mM) in assay buffer for 2 h at 37° C. The stimulation was stopped by aspirating the stimulation medium and adding ice-cold 10 mM formic acid. The accumulated inositol phosphates were isolated by anion exchange chromatography and counted by liquid scintillation. CRE Reporter Gene Assay— HEK239T cells were transfected with pCRE/β-galactosidase (Chen W, Shields T S, Stork P J S, Cone R D (1995) Anal Biochem 226:349-354) and plasmids (pcDEF3 or pcDNA3.1) encoding the indicated receptors. 40,000 transfected cells per well were seeded into 96 well plates and grown in DMEM supplemented with 10% fetal calf serum. The medium was replaced 32 h after transfection by serum-free DMEM supplemented with 0.5% bovine serum albumin and ligands as indicated. Following 16 h of ligand incubation, the medium was removed, the cells were lysed in 100 μl of assay buffer (100 mM sodium phosphate buffer at pH 8.0, 4 mM 2-nitrophenol-β-D-pyranoside, 0.5% Triton X-100, 2 mM MgSO4, 0.1 mM MnCl2, and 40 mM β-mercaptoethanol) and incubated at room temperature. […]

[2] = system: Jurkat cells endogenously expressing CXCR4; assay: Chemotaxis assay (ChemoTx plates) with Jurkat cells towards CXCL12; format: cell-based
Method: as §1

CXCR4 [3] = molecular target: T2, CXCR4; assay: CRE/β-galactosidase reporter gene assay in HEK293T cells expressing CXCR4; format: cell-based; settings: for Schild slope: log(CR-1) vs -log[Nanobody]
Method: as §1

CXCR6 = CXCR6 (Homo sapiens, UniProt O00574); assay: CRE/β-galactosidase reporter gene selectivity screen, CXCR6; format: cell-based; settings: up to 2.5, forskolin 3 μM, agonist at 50-80% Emax
Sequence of CXCR6 (O00574 whole entry, species assumed): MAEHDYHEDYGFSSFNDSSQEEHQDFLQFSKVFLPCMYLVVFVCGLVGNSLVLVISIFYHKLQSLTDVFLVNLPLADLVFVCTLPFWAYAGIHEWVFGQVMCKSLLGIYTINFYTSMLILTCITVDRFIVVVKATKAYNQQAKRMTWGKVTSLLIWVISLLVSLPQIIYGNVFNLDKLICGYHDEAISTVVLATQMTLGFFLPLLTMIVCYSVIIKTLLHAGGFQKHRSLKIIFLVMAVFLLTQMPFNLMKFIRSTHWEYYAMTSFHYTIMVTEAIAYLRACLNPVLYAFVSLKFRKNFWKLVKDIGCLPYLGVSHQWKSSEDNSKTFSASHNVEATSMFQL
Method: (§2) Data are shown as means±S.E.M. (n=2-3).
(§3) HEK293T cells were maintained at 37° C. in a humidified 5% CO2, 95% air atmosphere in Dulbecco's modified Eagle's medium (DMEM) containing 2 mM L-glutamine, 50 IU/ml penicillin, 50 μg/ml streptomycin, and 10% (v/v) fetal calf serum. Jurkat cells were cultured in a humidified 5% CO2, 95% air atmosphere in a 1:1 mixture of Dulbecco's modified Eagle's medium (DMEM) and Ham's F12 medium containing 2 mM L-glutamine, 50 IU/ml penicillin, 50 μg/ml streptomycin, and 10% (v/v) fetal calf serum. […] [^125 I]-Labelling— Radiolabeling of Nanobodies with ^125I was performed using the Iodo-gen method (Pierce, Rockford, Ill.) according to the manufacturer's protocol. ^125I-labeled Nanobodies was separated from free iodine (>99%) using a Sephadex G-25 gel filtration column (Amersham Biosciences, Piscataway, N.J.). […] Competition Binding Assays— Membranes from HEK293T cells transiently expressing CXCR3 or CXCR4 were prepared 48 h after transfection as follows. Cells were washed and scraped from the cell culture dishes with ice-cold PBS containing 1 mm EDTA. The scraped cells were pelleted at 1500×g for 10 min at 4° C. […] The total protein was determined using a Bradford assay (Bio-Rad). […] Plates were counted by liquid scintillation. […] The accumulated inositol phosphates were isolated by anion exchange chromatography and counted by liquid scintillation. […]

CXCR1 = molecular target: T1, CXCR1; assay: CRE/β-galactosidase reporter gene selectivity screen, CXCR1; format: cell-based; settings: up to 2.5, forskolin 3 μM, agonist at 50-80% Emax
Method: as §2, §3

[4] = HEK293T-CXCR4-Gαqi5/30 nM CXCL12, mean ± S.E.M.
[5] = Jurkat/0.3 nM CXCL12, monovalent Nanobodies, mean ± S.E.M.
[6] = HEK293T-CXCR4-CREbgal/0.01-100 nM CXCL12, mean ± S.E.M.

| Molecule | effect on agonist-induced response at histamine H4 receptors (histamine H4 receptors) | binding affinity at CXCR4 (N119A) compared to the wild type receptor (CXCR4 (N119A)) | binding to / displacement of [125I]-CXCL12 from CXCR4 (N119A) (CXCR4 (N119A)) | inhibition of the CXCL12-induced accumulation of inositol phosphates (CXCR4 [1]) | Imax (%), IP accumulation (CXCR4 [1]; [4]) [%] | pKi or pIC50, IP accumulation (CXCR4 [1]; [4]) | agonist activity, inositol phosphate accumulation (CXCR4 [1]) | Imax (%), Chemotaxis [2, 5] [%] | pKi or pIC50, Chemotaxis [2, 5] | agonist activity in the absence of CXCL12, CRE reporter (CXCR4 [3]) | mode of antagonism of the CXCL12-induced activation of signal transduction (CXCR4 [3]) | Imax (%), CRE activation (CXCR4 [3]; [6]) | pKi or pIC50, CRE activation (CXCR4 [3]; [6]) | pKB (CXCR4 [3]; from Schild plot data, CXCL12-induced reporter gene response) | Schild slope (CXCR4 [3]) | effect on agonist-induced response at CXCR6 (CXCR6) | effect on agonist-induced response at CXCR1 (CXCR1) | inhibition of migration of Jurkat cells towards CXCL12 ([2]; 300 pM CXCL12) | induction of migration of Jurkat cells (agonism) ([2]; test compound in lower compartment) |
| --- | --- | --- | --- | --- | --- | --- | --- | --- | --- | --- | --- | --- | --- | --- | --- | --- | --- | --- | --- |
| 238D2: Nanobody (VHH) raised against human CXCR4, SEQ ID NO: 238 (protein, Nanobody, Nanobody constructs or fragments thereof) VHH: EVQLVESGGGLVQTGGSLRLSCAASGFTFSSYAMSWVRQAPGKGLEWVSGIKSSGDSTRYAGSVKGRFTISRDNAKNMLYLQMYSLKPEDTAVYYCAKSRVSRTGLYTYDNRGQGTQVTVSS | do not act as agonists or antagonists; also recorded: do not alter | somewhat less | displace; also recorded: able to bind | fully inhibited | 86 ± 12 | 8.51 ± 0.11 | no intrinsic activity; also recorded: No agonist activity | 106 ± 2 | 8.33 ± 0.16 | No agonist activity; also recorded: did not show any agonist activity | competitive antagonism | 104 ± 5^a % | 7.64 ± 0.16^b | 7.64±0.16 | 0.91±0.20 | do not act as agonists or antagonists; also recorded: do not alter | do not act as agonists or antagonists; also recorded: do not alter | – | – |
| 238D4: Nanobody (VHH) raised against human CXCR4, SEQ ID NO: 239 (protein, Nanobody, Nanobody constructs or fragments thereof) VHH: EVQLMESGGGLVQAGGSLRLSCAASGRTFNNYAMGWFRRAPGKEREFVAAITRSGVRSGVSAIYGDSVKDRFTISRDNAKNTLYLQMNSLKPEDTAVYTCAASAIGSGALRRFEYDYSGQGTQVTVSS | do not act as agonists or antagonists; also recorded: do not alter | somewhat less | displace; also recorded: able to bind | fully inhibited | 90 ± 5 | – | no intrinsic activity; also recorded: No agonist activity | 101 ± 4 | – | No agonist activity; also recorded: did not show any agonist activity | competitive antagonism | 90 ± 15^a % | – | – | 0.71±0.17 | do not act as agonists or antagonists; also recorded: do not alter | do not act as agonists or antagonists; also recorded: do not alter | concentration-dependently inhibited | unable to induce any significant migration |
